Experimental data published in patent US20100196385A1 (AstraZeneca / MedImmune, published 2010).

T1: human Dll1 (human, UniProt O00548 18-723)
T1 construct: whole, on cells
T1 sequence (looked up): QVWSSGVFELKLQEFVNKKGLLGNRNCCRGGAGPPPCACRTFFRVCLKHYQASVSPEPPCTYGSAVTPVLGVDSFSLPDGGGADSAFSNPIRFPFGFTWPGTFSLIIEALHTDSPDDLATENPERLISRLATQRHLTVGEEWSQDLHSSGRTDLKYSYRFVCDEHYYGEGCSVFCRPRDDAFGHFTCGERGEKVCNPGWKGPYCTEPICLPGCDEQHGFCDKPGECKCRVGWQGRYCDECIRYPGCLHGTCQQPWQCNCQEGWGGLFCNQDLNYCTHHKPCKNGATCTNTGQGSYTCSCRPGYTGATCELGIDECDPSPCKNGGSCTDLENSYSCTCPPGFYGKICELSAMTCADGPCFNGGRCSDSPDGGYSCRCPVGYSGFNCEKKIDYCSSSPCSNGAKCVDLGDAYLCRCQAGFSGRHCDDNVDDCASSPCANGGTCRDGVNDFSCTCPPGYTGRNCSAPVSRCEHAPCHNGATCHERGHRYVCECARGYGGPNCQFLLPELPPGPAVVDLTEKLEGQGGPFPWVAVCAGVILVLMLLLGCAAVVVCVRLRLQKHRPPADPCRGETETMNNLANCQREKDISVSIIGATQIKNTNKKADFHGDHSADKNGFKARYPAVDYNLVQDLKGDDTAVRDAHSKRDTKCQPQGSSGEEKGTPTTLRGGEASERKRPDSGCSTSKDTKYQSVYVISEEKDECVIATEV


Assays:
human Dll1 [1] = molecular target: T1, human Dll1; assay: FACS, 15 µg/ml, 293T cells with human Dll1
Summary of the method: (§1)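 Purified anti-DLL4 antibodies were diluted in PBS with 2% FCS and incubated with cells (50000/well, same buffer) for 1 h at 4 °C. Binding was read by flow cytometry as the shift in geometric mean fluorescence in transfected cells relative to mock-transfected cells.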

[2] = molecular target: T2, human soluble DLL4 (R&D systems catalog #1056-D4-050) (human, UniProt Q9NR61 27-524); assay: Biacore T100, antibody immobilised, soluble human DLL4 as analyte
T2 construct: Catalog number as printed; perhaps the same product as #1506-D4; also called antigen DLL4
Summary of the method: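 Anti-DLL4 antibodies amine-coupled to CM5 chip (<200 RU). Soluble DLL4 injected from 32-64 nM in 3-fold dilutions, in triplicate, in HBS-P with 0.1 mg/ml BSA at 23° C. ka, kd and KD from a global 1:1 fit.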

full length human DLL4 = molecular target: T3, full length human DLL4 (human, UniProt Q9NR61 27-685); assay: FMAT competition, purified antibody vs Alexa-647 human Notch1/Fc, 293T cells with human DLL4
T3 construct: whole, on cells; also called native DLL4 expressed in HEK293 cells
Summary of the method: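 Blocking of Notch1/Fc binding to DLL4 was scored by FMAT fluorescence on DLL4-transfected 293T cells alongside untransfected cells. Antibodies, diluted serially from 5 μg/ml, were added for 1 h at 4 °C before Alexa-647 Notch1/Fc (100 ng/ml as added) for a further 3 h at 4 °C.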

[3] = molecular target: DLL4 extracellular domain (R&D systems, catalog #1506-D4/CF) (UniProt Q9NR61 27-529, limits assumed); assay: cell-based or functional assay
human Dll1 [4] = molecular target: T1, human Dll1; assay: FACS, up to 300 µg/ml, HEK-293 cells stably overexpressing human Dll1
human Jagged1 [5] = molecular target: T4, human Jagged1 (human, UniProt P78504 34-1218); assay: FACS, 5 µg/ml, 293T cells with human Jagged1
T4 construct: whole, on cells
Summary of the method: as §1

human Jagged1 [6] = molecular target: T4, human Jagged1; assay: FACS, up to 300 µg/ml, HEK-293 cells stably overexpressing human Jagged1

T2 sequence (Q9NR61 27-524 limits assumed): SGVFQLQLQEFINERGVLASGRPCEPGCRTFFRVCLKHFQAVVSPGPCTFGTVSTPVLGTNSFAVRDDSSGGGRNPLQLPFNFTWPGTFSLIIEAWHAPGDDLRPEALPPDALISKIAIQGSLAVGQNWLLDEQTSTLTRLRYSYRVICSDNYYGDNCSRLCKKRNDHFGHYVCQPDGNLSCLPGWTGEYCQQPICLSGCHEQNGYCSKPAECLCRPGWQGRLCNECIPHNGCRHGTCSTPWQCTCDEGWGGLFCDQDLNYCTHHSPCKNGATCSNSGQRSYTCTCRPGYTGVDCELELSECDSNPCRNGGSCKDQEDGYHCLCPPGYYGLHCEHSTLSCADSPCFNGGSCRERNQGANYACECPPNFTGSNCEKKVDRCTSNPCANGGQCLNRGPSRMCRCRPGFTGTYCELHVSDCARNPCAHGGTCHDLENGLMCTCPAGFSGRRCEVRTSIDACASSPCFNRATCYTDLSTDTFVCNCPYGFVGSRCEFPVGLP
T4 sequence (P78504 34-1218): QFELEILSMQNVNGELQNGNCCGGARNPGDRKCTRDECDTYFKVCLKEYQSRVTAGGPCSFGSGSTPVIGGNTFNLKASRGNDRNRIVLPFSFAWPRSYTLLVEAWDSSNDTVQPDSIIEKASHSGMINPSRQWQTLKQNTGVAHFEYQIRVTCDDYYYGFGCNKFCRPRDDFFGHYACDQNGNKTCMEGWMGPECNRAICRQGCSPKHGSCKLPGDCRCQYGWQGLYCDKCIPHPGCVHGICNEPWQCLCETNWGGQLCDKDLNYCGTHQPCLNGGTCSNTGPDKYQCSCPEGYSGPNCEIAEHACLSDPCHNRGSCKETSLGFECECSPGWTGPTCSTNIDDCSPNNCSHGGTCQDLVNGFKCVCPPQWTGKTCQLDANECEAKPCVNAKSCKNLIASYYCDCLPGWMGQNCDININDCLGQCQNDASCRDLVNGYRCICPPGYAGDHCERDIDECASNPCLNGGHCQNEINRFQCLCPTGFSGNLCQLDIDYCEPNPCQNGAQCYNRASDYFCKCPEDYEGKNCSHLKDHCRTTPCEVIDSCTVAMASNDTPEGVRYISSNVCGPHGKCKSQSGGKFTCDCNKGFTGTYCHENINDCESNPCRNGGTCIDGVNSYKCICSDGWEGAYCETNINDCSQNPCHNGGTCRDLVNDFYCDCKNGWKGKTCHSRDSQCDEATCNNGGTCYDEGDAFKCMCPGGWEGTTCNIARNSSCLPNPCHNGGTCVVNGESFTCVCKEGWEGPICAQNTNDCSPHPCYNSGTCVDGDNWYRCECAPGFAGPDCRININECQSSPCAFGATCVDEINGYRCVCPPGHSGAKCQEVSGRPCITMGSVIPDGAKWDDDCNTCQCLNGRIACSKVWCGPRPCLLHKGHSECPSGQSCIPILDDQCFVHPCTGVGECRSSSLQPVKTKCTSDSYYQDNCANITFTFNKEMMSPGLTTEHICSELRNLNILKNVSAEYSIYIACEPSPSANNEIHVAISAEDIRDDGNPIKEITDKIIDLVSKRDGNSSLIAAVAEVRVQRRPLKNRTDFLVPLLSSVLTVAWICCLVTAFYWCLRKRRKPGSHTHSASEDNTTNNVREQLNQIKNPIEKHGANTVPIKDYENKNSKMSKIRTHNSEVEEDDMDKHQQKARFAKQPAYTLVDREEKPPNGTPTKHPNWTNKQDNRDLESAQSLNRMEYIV
Sequence of DLL4 extracellular domain (R&D systems, catalog #1506-D4/CF) (Q9NR61 27-529 limits assumed): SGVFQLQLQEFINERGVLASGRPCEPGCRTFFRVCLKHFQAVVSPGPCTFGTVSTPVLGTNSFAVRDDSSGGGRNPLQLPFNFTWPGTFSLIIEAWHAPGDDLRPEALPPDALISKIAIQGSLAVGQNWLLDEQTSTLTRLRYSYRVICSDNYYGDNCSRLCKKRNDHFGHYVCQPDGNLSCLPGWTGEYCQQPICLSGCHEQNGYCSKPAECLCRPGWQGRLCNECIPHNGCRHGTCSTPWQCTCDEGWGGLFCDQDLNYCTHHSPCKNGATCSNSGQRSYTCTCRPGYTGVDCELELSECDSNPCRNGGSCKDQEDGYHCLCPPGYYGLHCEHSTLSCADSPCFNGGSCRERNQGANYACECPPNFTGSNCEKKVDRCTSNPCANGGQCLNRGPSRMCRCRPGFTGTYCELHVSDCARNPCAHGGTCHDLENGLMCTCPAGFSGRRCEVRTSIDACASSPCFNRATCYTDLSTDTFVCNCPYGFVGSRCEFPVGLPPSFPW
T3 sequence (Q9NR61 27-685): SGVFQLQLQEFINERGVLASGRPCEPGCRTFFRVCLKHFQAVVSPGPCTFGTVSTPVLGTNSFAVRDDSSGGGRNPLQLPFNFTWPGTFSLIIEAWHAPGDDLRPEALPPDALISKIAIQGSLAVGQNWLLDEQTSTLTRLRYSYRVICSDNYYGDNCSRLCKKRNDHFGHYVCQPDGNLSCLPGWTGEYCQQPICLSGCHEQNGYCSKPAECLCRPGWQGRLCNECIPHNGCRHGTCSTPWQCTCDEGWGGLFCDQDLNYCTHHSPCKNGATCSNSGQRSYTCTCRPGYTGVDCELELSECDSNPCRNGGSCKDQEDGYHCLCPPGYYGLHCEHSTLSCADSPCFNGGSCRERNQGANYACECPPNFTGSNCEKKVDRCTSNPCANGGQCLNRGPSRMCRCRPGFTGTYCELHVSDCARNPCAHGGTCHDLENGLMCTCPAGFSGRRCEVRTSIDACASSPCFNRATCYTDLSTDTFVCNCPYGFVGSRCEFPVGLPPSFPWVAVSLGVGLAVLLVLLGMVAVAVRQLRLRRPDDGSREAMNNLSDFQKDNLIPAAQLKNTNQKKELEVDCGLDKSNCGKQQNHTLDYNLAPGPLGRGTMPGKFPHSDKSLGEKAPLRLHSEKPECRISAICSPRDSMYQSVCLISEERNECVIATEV

Row | Dll1/293T X Geo mean (human Dll1 [1]) | Kd [2] [nM] | koff [2] [s⁻¹] | kon [2] [M⁻¹ s⁻¹] | % inhibition at 0.020 nM (full length human DLL4) [%] | % inhibition at 0.070 nM (full length human DLL4) [%] | % inhibition at 0.21 nM (full length human DLL4) [%] | % inhibition at 0.62 nM (full length human DLL4) [%] | % inhibition at 1.9 nM (full length human DLL4) [%] | % inhibition at 5.6 nM (full length human DLL4) [%] | % inhibition at 16.7 nM (full length human DLL4) [%] | IC50 (full length human DLL4) [nM] | % inhibition 1 µg/ml, AVERAGE (HUVEC proliferation on coated DLL4) [3] [%] | % inhibition 1 µg/ml, N = 1 (HUVEC proliferation on coated DLL4) [3] [%] | % inhibition 1 µg/ml, N = 2 (HUVEC proliferation on coated DLL4) [3] [%] | % inhibition 10 µg/ml, AVERAGE (HUVEC proliferation on coated DLL4) [3] [%] | % inhibition 10 µg/ml, N = 1 (HUVEC proliferation on coated DLL4) [3] [%] | % inhibition 10 µg/ml, N = 2 (HUVEC proliferation on coated DLL4) [3] [%] | fold over background (human Dll1 [4]) [fold] | Jagged1/293T X Geo mean (human Jagged1 [5]) | Binder | further results
1 | 32.3 | 0.132 | 1.36e-05 | 103000 | 10 | 14 | 33 | 22 | 68 | 125 | 121 | 1.88 | 62 | 52 | 71 | 77 | 72 | 82 | < 2.5 | 17.4 | 9G8 (antibody, IgG4, V domains shown, Fully human; used for IgG4 rows and where no isotype is printed; also called 9G8 IgG4) VH: QLQLQESGPGLVKPSETLSLSCTVSGGSISSSSSYWGLIRQPPGKGLEWIGSIYYSGSTYYSPSLKSRVSISVDTSKNQFSLKLSSVTAADTAVYFCARQGYGGHPDVFDIWGQGTMVTVSS VL: SSELTQSPSVSVSPGQTARITCSGDKLGDVYVCWYQQKTGQSPVLVIYEDTKRPSGIPERFSGSNSGNTATLTISGTQVMDEADYYCQAWDSTTAVIFGGGTKLTVL | fold over background (human Jagged1 [6]): < 2.5 fold
2 | 25.9 | 0.283 | 3.33e-05 | 118000 | 14 | 21 | 23 | 65 | 95 | 127 | 136 | 0.72 | 93 | 101 | 84 | 97 | 102 | 92 | < 2.5 | 16.8 | 4B4 (antibody, IgG4, V domains shown, Fully human; used for IgG4 rows and where no isotype is printed; also called 4B4 IgG4; 4B4.1) VH: QVLLIQSGAEVKKPGASVQVSCKASGYTFTNYGVIWVRQAPGQGLEYMGWISAYNGNTNYAQKLQDRVTMTSDTSTTTAYMELRSLRSDDTAVYYCARELGSSFDYWGQGTLVTVSS VL: SYELTQPPSVSVSPGQTARITCSGDALPKKYAYWYQQKSGQAPVLVIYEDIKRPSGIPERFSGSSSGTMATLTISGAQVEDEADYYCFSTDNSGDHSVFGGGTKLTVL | fold over background (human Jagged1 [6]): < 2.5 fold

Continued, binder first:

Row | Binder | Dll1/293T X Geo mean (human Dll1 [1]) | Kd [2] [nM] | koff [2] [s⁻¹] | kon [2] [M⁻¹ s⁻¹] | % inhibition at 0.020 nM (full length human DLL4) [%] | % inhibition at 0.070 nM (full length human DLL4) [%] | % inhibition at 0.21 nM (full length human DLL4) [%] | % inhibition at 0.62 nM (full length human DLL4) [%] | % inhibition at 1.9 nM (full length human DLL4) [%] | % inhibition at 5.6 nM (full length human DLL4) [%] | % inhibition at 16.7 nM (full length human DLL4) [%] | IC50 (full length human DLL4) [nM] | % inhibition 1 µg/ml, AVERAGE (HUVEC proliferation on coated DLL4) [3] [%] | % inhibition 1 µg/ml, N = 1 (HUVEC proliferation on coated DLL4) [3] [%] | % inhibition 1 µg/ml, N = 2 (HUVEC proliferation on coated DLL4) [3] [%] | % inhibition 10 µg/ml, AVERAGE (HUVEC proliferation on coated DLL4) [3] [%] | % inhibition 10 µg/ml, N = 1 (HUVEC proliferation on coated DLL4) [3] [%] | % inhibition 10 µg/ml, N = 2 (HUVEC proliferation on coated DLL4) [3] [%] | fold over background (human Dll1 [4]) [fold] | Jagged1/293T X Geo mean (human Jagged1 [5]) | further results
3 | 21H3 (antibody, IgG4, V domains shown, Fully human; used for IgG4 rows and where no isotype is printed; also called 21H3 IgG4) VH: QVQLVQSGAEVKKPGASVKVSCKASGYTFTNYGITWVRQAPGQGPEWMGWISAYNGNTNYAQKLQDRVTVTTDTSTSTAYMELRSLRSDDTAVYYCARDRVPRIPVTTEAFDIWGQGTMVTVSS VL: QSVLTQPPSASGTPGQRVTISCSGSSSNIGSYFVYWYQQLPGTAPKLLIYRNNQRPSGVPDRFSGSESGTSASLAISGLRSEDEADYYCAAWDDSLSGHWVFGGGTRLTVL | 32.4 | 0.481 | 0.000152 | 317000 | -17 | -2 | 25 | 9 | 68 | 115 | 124 | 1.73 | 93 | 86 | 99 | 89 | 88 | 89 | – | 15.5 | –
4 | 2H10 (antibody, IgG4, V domains shown, Fully human; used for IgG4 rows and where no isotype is printed; also called 2H10 IgG4) VH: QVQLVESGGGVVQPGRSLRLSCAASGFTFSRHGMHWVRQAPGKGLEWVAVVWFDGSNIYYADSVKGRFTISRDNSKNTLYLQMNSLRAEDTAMYYCARDSRIAAADYWGQGTLVTVSS VL: SYELTQPPSVSVSPGQTVSITCSGDKLGDKYVCWYQQKPGQSPVLVIYQESKRPSGIPERFSGSSSGNTATLTISGTQAMDEADYYCQTWDSSLVVFGGGTKLTVL | 44.1 | 0.981 | 4.02e-05 | 40900 | 6 | -3 | 14 | 27 | 45 | 119 | 111 | 2.05 | 93 | 98 | 87 | 103 | 110 | 95 | < 2.5 | 9.28 | fold over background (human Jagged1 [6]): < 2.5 fold
